Assay results reported in PMC11855083.

Each sequence was assayed against T1, His6-NfxB (Pseudomonas aeruginosa PAO1?) (UniProt P32265) (assay: EMSA). Settings: pH 7.0, room temperature, 10 min ([…].
T1 sequence: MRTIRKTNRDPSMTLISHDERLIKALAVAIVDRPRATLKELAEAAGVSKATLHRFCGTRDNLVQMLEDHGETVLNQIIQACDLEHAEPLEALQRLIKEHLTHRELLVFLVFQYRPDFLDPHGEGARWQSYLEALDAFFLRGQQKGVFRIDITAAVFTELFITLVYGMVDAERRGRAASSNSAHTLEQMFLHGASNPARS

| Sequence | binding |
| --- | --- |
| ACGCAAATCAGCCATGACACACCCGACCGTTGATTGAAAACGGATCGAATGGTACTTTTTCGAGCTAATTGAGTCAATATTGTCTCAAATGATCTTTTGACAGCTAATTCCTTTGGACGCGAGGCCAGTTTTCTGCACAATGCGCACAATCAGAAAAACCAACCGGGACCCATCGATGACCCTGAT (double strand) [mexC promoter] | binds |
| ATCTTTCCTCCCGTGTGGCTCGCGCCACTACGCTATGCAAGCGCCCGCCACCATGGCAGGCGCTGTCGTTGAATGCCTCAGGCCTCTTTGGCCGAAGGCAGCTTGGA (double strand) [hcp1T (hcp1 promoter with potential NfxB motif truncated)] | no binding |
| TCCAAGCTGCCTTCGGCCAAAGAGGCCTGAGGCATTCAACGACAGCGCCTGCCATGGTGGCGGGCGCTTGCATAGCGTAGTGGCGCGAGCCACACGGGAGGAAAGATGGCTGTTGATATGTTCATCAAGATCGGC (double strand) [hcp1 promoter (phcp1)] | binds |
